The Kd is a measure of binding affinity in units of concentration. In general, stoichiometry N refers to a count of units in the complex or per binding partner.

First the molecules themselves.
B3: wild-type USP5 (ubiquitin-specific protease 5), recombinant (enzyme, human, UniProt P45974-1 1-858, looked up)
chain: MAELSEEALLSVLPTIRVPKAGDRVHKDECAFSFDTPESEGGLYICMNTFLGFGKQYVERHFNKTGQRVYLHLRRTRRPKEEDPATGTGDPPRKKPTRLAIGVEGGFDLSEEKFELDEDVKIVILPDYLEIARDGLGGLPDIVRDRVTSAVEALLSADSASRKQEVQAWDGEVRQVSKHAFSLKQLDNPARIPPCGWKCSKCDMRENLWLNLTDGSILCGRRYFDGSGGNNHAVEHYRETGYPLAVKLGTITPDGADVYSYDEDDMVLDPSLAEHLSHFGIDMLKMQKTDKTMTELEIDMNQRIGEWELIQESGVPLKPLFGPGYTGIRNLGNSCYLNSVVQVLFSIPDFQRKYVDKLEKIFQNAPTDPTQDFSTQVAKLGHGLLSGEYSKPVPESGDGERVPEQKEVQDGIAPRMFKALIGKGHPEFSTNRQQDAQEFFLHLINMVERNCRSSENPNEVFRFLVEEKIKCLATEKVKYTQRVDYIMQLPVPMDAALNKEELLEYEEKKRQAEEEKMALPELVRAQVPFSSCLEAYGAPEQVDDFWSTALQAKSVAVKTTRFASFPDYLVIQIKKFTFGLDWVPKKLDVSIEMPEELDISQLRGTGLQPGEEELPDIAPPLVTPDEPKGSLGFYGNEDEDSFCSPHFSSPTSPMLDESVIIQLVEMGFPMDACRKAVYYTGNSGAEAAMNWVMSHMDDPDFANPLILPGSSGPGSTSAAADPPPEDCVTTIVSMGFSRDQALKALRATNNSLERAVDWIFSHIDDLDAEAAMDISEGRSAADSISESVPVGPKVRDGPGKYQLFAFISHMGTSTMCGHYVCHIKKEGRWVIYNDQKVCASEKPPKDLGYIYFYQRVAS
notes: ubiquitin-specific protease 5 (USP5), human; No removal of the His tag is described; the TR-FRET assay detects the His-tagged protein with an anti-His6 antibody; also called USP5^WT; His-USP5; source: E. coli BL21 (DE3), purified (Ni-NTA, SEC Superdex 200)
B4: catalytically inactive USP5 C335A, recombinant (enzyme, human, UniProt P45974-1 1-858, looked up)
chain: MAELSEEALLSVLPTIRVPKAGDRVHKDECAFSFDTPESEGGLYICMNTFLGFGKQYVERHFNKTGQRVYLHLRRTRRPKEEDPATGTGDPPRKKPTRLAIGVEGGFDLSEEKFELDEDVKIVILPDYLEIARDGLGGLPDIVRDRVTSAVEALLSADSASRKQEVQAWDGEVRQVSKHAFSLKQLDNPARIPPCGWKCSKCDMRENLWLNLTDGSILCGRRYFDGSGGNNHAVEHYRETGYPLAVKLGTITPDGADVYSYDEDDMVLDPSLAEHLSHFGIDMLKMQKTDKTMTELEIDMNQRIGEWELIQESGVPLKPLFGPGYTGIRNLGNSAYLNSVVQVLFSIPDFQRKYVDKLEKIFQNAPTDPTQDFSTQVAKLGHGLLSGEYSKPVPESGDGERVPEQKEVQDGIAPRMFKALIGKGHPEFSTNRQQDAQEFFLHLINMVERNCRSSENPNEVFRFLVEEKIKCLATEKVKYTQRVDYIMQLPVPMDAALNKEELLEYEEKKRQAEEEKMALPELVRAQVPFSSCLEAYGAPEQVDDFWSTALQAKSVAVKTTRFASFPDYLVIQIKKFTFGLDWVPKKLDVSIEMPEELDISQLRGTGLQPGEEELPDIAPPLVTPDEPKGSLGFYGNEDEDSFCSPHFSSPTSPMLDESVIIQLVEMGFPMDACRKAVYYTGNSGAEAAMNWVMSHMDDPDFANPLILPGSSGPGSTSAAADPPPEDCVTTIVSMGFSRDQALKALRATNNSLERAVDWIFSHIDDLDAEAAMDISEGRSAADSISESVPVGPKVRDGPGKYQLFAFISHMGTSTMCGHYVCHIKKEGRWVIYNDQKVCASEKPPKDLGYIYFYQRVAS
notes: ubiquitin-specific protease 5 (USP5), human, catalytic Cys335 changed to Ala; Named His-USP5^C335A in the TR-FRET assay; also called His-USP5^C335A; source: E. coli BL21 (DE3), purified (Ni-NTA, SEC Superdex 200)

What all share (details): both partners purified
Assay [1] deals with B3. The assay can be described thus: activity-based probe labelling (covalent adduct on SDS-PAGE); purified DUB 1 µM with probe 2 µM in 50 mM Tris pH 7.5, 1 mM DTT, 37 °C; quenched with LDS/DTT; shows only the covalent probe-enzyme adduct as a band shift.
Assay [2] deals with B3. Put plainly: ITC; SDE2 construct or Ub titrated into USP5 construct; ITC200, 298 K; 50 mM HEPES, 100 mM NaCl, 1 mM TCEP, pH 7.5; duplicate experiments. For orientation: Isothermal titration calorimetry measures the heat released or taken up as one component is titrated into another.
Assay [3] concerns the target T1, ubiquitin (monoubiquitin) (human, UniProt P0CG48 1-76).
T1 construct: ubiquitin, human
The assay can be described thus: HDX-MS; USP5^WT 6 µM with or without 200 µM ubiquitin or SDE2UBL, 30 min; 20 mM HEPES pH 7.5, 150 mM NaCl, 1 mM DTT; exchange 0.3 to 3000 s; pepsin digestion.

The target in assay [4] is T2, Ub-PA activity-based probe (His-Ub-PA) (human, UniProt P0CG48 1-75, C-terminal propargylamide (PA) warhead).
T2 construct: ubiquitin residues 1-75; The plasmid name holds a 3C site between His and Ub; also called Ub-ABP; source: plasmid pTXB1_His-3C-Ub (1-75); obtained by the same method as HA-SDE2UBL-PA
The assay can be described thus: activity-based probe labelling (covalent adduct on SDS-PAGE); purified DUB 1 µM with probe 2 µM in 50 mM Tris pH 7.5, 1 mM DTT, 37 °C; quenched with LDS/DTT; shows only the covalent probe-enzyme adduct as a band shift.

For assay [5], the target named is T1, ubiquitin (monoubiquitin). Put plainly: ITC; SDE2 construct or Ub titrated into USP5 construct; ITC200, 298 K; 50 mM HEPES, 100 mM NaCl, 1 mM TCEP, pH 7.5; duplicate experiments.
The target in assay [6] is B4. Described as above.
The target of another assay is T3, USP5 C335R, recombinant (human, UniProt P45974-1 1-858, C335R).
T3 construct: ubiquitin-specific protease 5 (USP5), human, Cys335 changed to Arg; source: E. coli BL21 (DE3), purified (Ni-NTA, SEC Superdex 200)
T3 sequence (looked up): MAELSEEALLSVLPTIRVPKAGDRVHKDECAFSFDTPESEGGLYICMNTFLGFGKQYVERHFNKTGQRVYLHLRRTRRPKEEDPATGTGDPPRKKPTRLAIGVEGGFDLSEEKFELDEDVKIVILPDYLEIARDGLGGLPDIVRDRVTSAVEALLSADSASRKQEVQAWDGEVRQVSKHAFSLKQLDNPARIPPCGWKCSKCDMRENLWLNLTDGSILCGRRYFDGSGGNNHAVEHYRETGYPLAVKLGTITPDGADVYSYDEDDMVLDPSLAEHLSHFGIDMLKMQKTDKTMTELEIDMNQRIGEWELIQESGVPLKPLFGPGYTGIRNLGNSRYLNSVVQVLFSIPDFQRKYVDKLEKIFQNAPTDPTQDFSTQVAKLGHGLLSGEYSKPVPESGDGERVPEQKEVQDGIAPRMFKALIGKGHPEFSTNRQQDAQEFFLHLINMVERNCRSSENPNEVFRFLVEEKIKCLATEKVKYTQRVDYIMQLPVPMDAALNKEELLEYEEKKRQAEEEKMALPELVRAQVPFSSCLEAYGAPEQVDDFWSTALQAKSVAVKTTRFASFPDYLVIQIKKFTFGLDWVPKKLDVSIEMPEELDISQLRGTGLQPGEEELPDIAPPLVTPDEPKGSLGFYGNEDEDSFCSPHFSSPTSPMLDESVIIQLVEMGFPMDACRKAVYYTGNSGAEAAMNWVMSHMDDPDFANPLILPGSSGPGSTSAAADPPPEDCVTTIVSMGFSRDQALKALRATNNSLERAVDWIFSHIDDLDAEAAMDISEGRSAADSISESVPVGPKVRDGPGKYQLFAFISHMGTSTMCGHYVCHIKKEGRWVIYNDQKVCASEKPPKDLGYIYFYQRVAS
Described as above.

B1: HA-SDE2UBL-PA activity-based probe (domain or fragment, human, UniProt Q6IQ49-1 1-76, looked up)
chain: MAEAAALVWIRGPGFGCKAVRCASGRCTVRDFIHRHCQDQNVPVENFFVKCNGALINTSDTVQHGAVYSLEPRLCG
modifications: C-terminal propargylamide: Gly77 replaced with a propargyl electrophilic warhead
notes: Silencing Defective 2 (SDE2), human, ubiquitin-like domain residues 1-76; Reacts covalently with the catalytic cysteine of the protease that recognises it; also called HA-SDE2UBL-ABP; SDE2UBL probe; not shown: HA, N-terminal, kept
Consider B1, for which, in assay [1], the binding result is given as “binds”.

B2: SDE2UBL without the terminal Gly77 (domain or fragment, human, UniProt Q6IQ49-1 1-76, looked up)
chain: MAEAAALVWIRGPGFGCKAVRCASGRCTVRDFIHRHCQDQNVPVENFFVKCNGALINTSDTVQHGAVYSLEPRLCG
notes: Silencing Defective 2 (SDE2), human, ubiquitin-like domain with the terminal Gly77 removed (residues 1-76); also called SDE2UBLΔG77
With B2, the binding result in assay [2] was “binds”.

With B3, the binding result in assay [3] and in assay [4] was “binds” throughout.

Molecule B4 yielded a dissociation constant Kd in assay [5] of 11.7 ± 9.1 nM.

B5: SDE2 ubiquitin-like domain, SDE2UBL(1-77) (domain or fragment, human, UniProt Q6IQ49-1 1-77, looked up)
chain: MAEAAALVWIRGPGFGCKAVRCASGRCTVRDFIHRHCQDQNVPVENFFVKCNGALINTSDTVQHGAVYSLEPRLCGG
notes: Silencing Defective 2 (SDE2), human, N-terminal ubiquitin-like domain, residues 1-77, ending in the free Gly76-Gly77 motif; also called SDE2 1-77; source: E. coli BL21 (DE3), purified (Ni-NTA, SUMO protease, reverse Ni-NTA, SEC Superdex 75); not shown: His, N-terminal, cleaved; SUMO, N-terminal, cleaved
For B5, the Kd in assay [2] turned out to be 26600 nM; in assay [6], 1670 nM; in the assay with USP5 C335R, recombinant, 2150 nM. Moreover, the “stoichiometry N” value came to 2 in assay [6] and 1 with USP5 C335R, recombinant.

For the origin of these results see paper PMC13572447, “USP5 acts as a proteolytic switch to control SDE2 function via UBL-directed cleavage” (Nature Communications, 2026).
